Results reported in the supplement of paper PMC12764529.
± gives the half width of the 95% confidence interval.

Key:
[1] = folding stability dG unfold from chymotrypsin proteolysis; higher = more stable
Method in brief: (§1)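 Digests were run with trypsin and chymotrypsin at 11 concentrations in threefold dilutions, plus a no-protease condition, on designed mini-proteins in a PA-tagged cDNA display construct. The mini-proteins were under 80 residues, had no cysteine, and were kept only when AlphaFold2 dimer inter-PAE was above 15. After sequencing, Bayesian fitting of the counts gave K50, from which unfolding free energy was derived against a sequence-predicted unfolded-state K50 and a shared folded-state K50, per protease or combined.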

[2] = folding stability dG unfold (combined trypsin and chymotrypsin); higher = more stable
Method in brief: as §1

Sequence	folding stability dG unfold [1] [kcal/mol]	folding stability dG unfold [2] [kcal/mol]
SAGGSAIKIDPDYGTIEIYNPDNGKEIEIPIDGLPPGRKMDIEINNDKIEIKMPGGTRELPIDDIKSAGGSA [r15_864_TrROS]	0.655 ± 0.068	0.194 ± 0.26
SAGGSAKTIVIPAEDLTPEEIKALAEENKDKIVIYNKKTKKVVTIEVKDGKITKVEEFPVSEEELKSAGGSA [r15_751_TrROS_Hall]	0.173 ± 0.3	-0.256 ± 0.67
SAGGSALKVKSVHQNPDDNYYMITVTIPGPDKAPREIMFPSPEDLEDKLDNLPPGIESVEIHPMKPSAGGSA [r15_589_TrROS]	-0.203 ± 0.19	< -1
SAGGSAMKIEEEEVEVPLSDEELEALKKNPGKTVKVKVIKIEIEMPEEEKKRLAKELEEKFNIKIESAGGSA [r15_347_TrROS_Hall]	0.0343 ± 0.2	-0.146 ± 0.27
SAGGSAMSLEELKKKKVKVKVKEIEVPKGAKIPDGKTVKEGEKILVVDGKVYLPNGKLIAEVEVEESAGGSA [r15_12_TrROS_Hall]	-0.621 ± 0.22	-0.629 ± 0.47
SAGGSAMSQEEIENKPIEEIAKAILENFPGNTKVEHEFTFKDGSKLRIVVELPEDGEPKIEAEPIGSAGGSA [r15_857_TrMRF]	-0.0162 ± 0.39	-0.452 ± 0.56
SAGGSASMRTVTLTSTETLELKDPSGNLRVETTPVVVTVPVEVPDPNLPPPAVNSPVLTELLLRLLSAGGSA [r15_728_JUSTAS]	0.413 ± 0.064	0.0436 ± 0.084
SAGGSASTTPIKFPNGFEVTKIEEGKGLVYIKYSPENPEILEKLGVEALETNENEVIVPREAIEKKSAGGSA [r15_984_JUSTAS]	-0.634 ± 0.28	-0.993 ± 0.36
SAGGSATFEEALREVAEPTGAVPYVDPETGVAYVDFPDGKELEIEVPDGDRIEVRVLPDGRAVARGSAGGSA [r15_256_TrMRF]	-0.494 ± 0.19	< -1
SAGGSEAAPGEKVTITTVTSSVLKTYETPTGTLETESSTSVTTTTVTVPAAAAAAAGVRYSPDPLLSAGGSA [r2_495_JUSTAS]	-0.348 ± 0.14	< -1
SAGGSGSIVIKSIEPRLRLERLPNGELREVKEVEVDIEVEVDPETAPEEEIEAVREEAEKLAEELSSAGGSA [r2_40_JUSTAS]	0.713 ± 0.082	0.144 ± 0.21
SAGGSMKLKPGDEIWVPENMPEDAIKDEIKEWADNFNIKGIDDIEPPKPGWHRIKVEWPNGRKLTISAGGSA [r2_168_TrROS]	-0.147 ± 0.17	-0.748 ± 0.3
SAGGSSAEELAEALKKKLEELGLEIKELELKVKKVKVEEKPKPKVELKEEKVEVKEKKFYSEEEKKSAGGSA [r2_384_TrROS_Hall]	-0.485 ± 0.69	< -1
SAGGSSLPPEYTVTEVEREFTTPEDVAEARAAAEAAAAAGAEVLEVTVERPEDGSYRVRFTLATPRSAGGSA [r2_350_JUSTAS]	0.611 ± 0.22	0.0151 ± 0.24
SAGGSSRTISIPVSPSLSPEEVAELIKKEVKKMGEDKEVKVLSVDPSGRIDVLVGDEPITVDASLPSAGGSA [r2_102_JUSTAS]	0.623 ± 0.1	0.235 ± 0.2
SAGGSSYIVKATPAGGPSFEAEATLTSVSSEGDNFTANVEVTFDGKPVTLTFDGDKVGPVVIEPPESAGGSA [r2_319_TrMRF]	0.558 ± 0.15	-0.0521 ± 0.17
SAGGSTAEELADQIHKKFMEQGYKITDVDITYNPNNWVMVKATIRNPDDPNQRMKMNIMIPKDEIKSAGGSA [r2_384_TrROS]	0.649 ± 0.32	0.239 ± 0.29
SAGGSYMVKVEWRNNNKEMEMTHPFDDPEDALNFAHDLLPNGMELDIEVFDPKEGEPIGTVPFRVDSAGGSA [r2_390_TrROS]	-0.536 ± 0.26	< -1
SAGGTIKPGQPVRIRAEWYNGNKEWTHTHEFPLPENQTLDDVADEILEHLPPEHNKNFKVRIEIEPVSAGGS [r16_321_TrROS]	0.904 ± 0.1	0.373 ± 0.11
SAGGWVKDPDGQTVEMKVLDPGMNKDNAKPFADNIAEQLHRQHGMNPNNVKVKVETDPENGTVRVKVKSAGG [r13_913_TrROS]	-0.385 ± 0.39	< -1
SAGKMTIEIVVEVKPGMTEEELKEKLEELVKKLKEEFPELKNLEIKIVEVKVERLEDGTLRVTVKIEVKSAG [r5_985_TrROS_Hall]	3.08 ± 0.24	> 6
SAGKVLEELGYELVEEKEEEIGDVKIITATFPVGESPVVVTAEVTEKKEDDKPIVKVKVTVTPLPPEAPSAG [r5_516_JUSTAS]	0.977 ± 0.17	0.58 ± 0.51
SAGMKIKVTIERGGDRAERILPPEEAKALLDKYPEDGEIPLDLEGEEVTVKIEKTPPALPTEEAIKELKSAG [r5_669_JUSTAS]	0.11 ± 0.4	< -1
SAGMKVTVSPASLVFDPATGRLLRPVLVTVEDTGGGGKTPAEEQAAAAEATRRALAAELAPRTGSALDLSAG [r5_333_JUSTAS]	0.912 ± 0.069	0.37 ± 0.091
SAGMPADTFIELNITITVPSEEYEADPAAVKAAADAAIAAAKAAGLPVDAATFTFERVPPVDPNNPRVGSAG [r5_979_JUSTAS]	-0.605 ± 0.2	< -1

Sequence	folding stability dG unfold [1] [kcal/mol]	folding stability dG unfold [2] [kcal/mol]
SAGMTPEDLKNGKPVKVPIPIPIRDPDGKPWAEIPIKGPMPVKDIMEVIETIREIARELKIPPSDGDKNSAG [r5_606_TrROS]	-0.743 ± 0.53	< -1
SAGMVIELPNATITIETVPDPSSSNKVYRVTVTAHLPDGSRPVVVLTFPENVPIEEILKEAIKAAEELLSAG [r5_704_JUSTAS]	5.93 ± 0.14	> 6
SAGPAVAVAPIPALEARPDLKDALVRVVVSPLPDGRVAVDVRPVFVPKPVITPEEARELEELAEKLAASAGG [r19_313_TrMRF]	0.297 ± 0.027	-0.224 ± 0.13
SAGPEIKIEPRSYDPKKGIFTYSAYVLDYKDGKKEREIEVGTWRYYGPDGTVEPISEEDILQKAKDLLSSAG [r5_909_TrMRF]	0.543 ± 0.32	0.371 ± 0.18
SAGPITPEEIQEKVTKAMEEEGMDNVNVDVQRDEDNGRITIQVEVQMPPGNKEKAQRIQDAIQDELGIKSAG [r5_9_TrROS]	0.89 ± 0.062	0.277 ± 0.099
SAGPWKIEVEQYDPNGKKEEIEDPEDLLDLAKDLPPNRMVHIKIPNGRETIMFQNPDGNVFVLKIERPESAG [r5_506_TrROS]	-0.0396 ± 0.33	-0.374 ± 0.34
SAGRIKSIQINPYENPNGQYPITVRVRWPGNGKERDRNFPMSPNDARNQAKELAKELPGKPLEIDEITSAGG [r19_317_TrROS]	-0.545 ± 0.15	-0.943 ± 0.19
SAGRRKVEIPIPFDDPGQAMSADELADELRELGLKPGHEPKVEPHPDGYMRVKFEVPGPEVTIHIPMWDSAG [r5_144_TrROS]	0.747 ± 0.16	0.183 ± 0.098
SAGRRSLVLLAPVDDPARAPTAEELARELLALGGTPATRPRAEPLEDDTLRVTFEAPGVDVTVLVDLRASAG [r5_144_TrMRF]	0.638 ± 0.12	0.138 ± 0.11
SAGSAVVRDFDFEVPPGYGVLDVTVTEGPGPPVWEGTVTFQAGGAPETLTVTIPVDPATGARSVAMTAGSAG [r5_136_JUSTAS]	0.267 ± 0.13	-0.235 ± 0.25
SAGSVSLPPGAVLTEERKLPDGSLVRTTTTVSPVPELPVDRIETTTEFYAPGGEKIGTETSSSLRPPGESAG [r5_787_JUSTAS]	-0.0977 ± 0.13	-0.493 ± 0.35
SAGSVTRSFPSGSSVSAETDPETNTITISTSPSSGQLVAQLPTAGEKVVPVSDRDLEEAAKEAAEALLSSAG [r5_447_JUSTAS]	-0.134 ± 0.12	-0.854 ± 0.32
SAGVKIERDPNPGWMEITYPIDNKPIQIEIPMDPNNGQMKVKVEYGDGKPKEYTIPGGSIEEIIEDLFSAGG [r19_159_TrROS]	0.111 ± 0.23	< -1
SAGVRYLVATGEDGATVVVPVPAETEEEAEEKAEELARELAERFPGARFVPVPVEEPELPPVEALPGVESAG [r5_950_TrMRF]	0.429 ± 0.11	-0.46 ± 0.57
SAGWDLKIEPEPNPDNGMRMINIEYEDPDGDGPYTVSIMYHNGKIKAVEVQDPNTGEPELTPEALEELFSAG [r5_872_TrROS]	0.14 ± 0.26	-0.305 ± 0.49
SAIKIEDDPNGYQQIEIPNPENGRKIVITMMYSPDGQFQMSLQRMDPNGKKKTITAPMPVEEAIDELKDSAG [r14_179_TrROS]	0.698 ± 0.33	0.0571 ± 0.6
SALDPAAGTVTATVTRPVTLPDGRTVPVTRPVRVPVTYDVVVRDPETGEVVRAADYDPETGRLRDASAASAG [r14_122_TrMRF]	0.548 ± 0.37	< -1
SAMDLSTLPPSTSVTPSTSSLPGNLSRSTYTLTTRDPETGALTVTTVTTYTDPSSSSTTVTPSTTLLPASAG [r14_307_JUSTAS]	0.34 ± 0.22	0.00104 ± 0.15
SAMKIEIEVPSLEQVKKLEKLLPDKYKISEVKVDPETKKVYVIIELDPSLSPEEVAKLEKEFEEVVKEESAG [r14_306_TrMRF]	5.03 ± 0.28	5.14 ± 0.58
SAMNVTLTKHPDGTYTVGATLPGYSPVSTQTIPSSVPSYTVTYRTPDEVLKVTYKDSGLTPERVPISRLSAG [r14_403_JUSTAS]	0.395 ± 0.053	-0.0343 ± 0.044
SAPVRTVTLNVPVERDAAGNLVPVSPEEIVAELEKEGYPREEIEVKNVTETTIPVTIEVDLVNGKMRVLGSA [r9_225_JUSTAS]	-0.326 ± 0.61	< -1
SAYYKIRWNNGREIELKDMPIEDLEKYFPGGPVEIEPVPPVPVVRIESWEQANDLAEQNPPNHTIIVMDSAG [r14_445_TrROS]	-0.476 ± 0.83	-0.634 ± 0.56
SGMDVFVASDPGPSYLRAEARLPGGESRVLTSGPPEEARALVERLAAEEDPAMAVRRVEEVPPGELPPELSA [r9_137_JUSTAS]	-0.38 ± 0.18	< -1
SGMTIEVEKEIEIYDPEKGVKIGSVKVKVLVPTSYSPEEIPEIAEKEIKKAKEELEKPEPPEVNEDGTLKSA [r9_454_JUSTAS]	0.751 ± 0.035	0.241 ± 0.16
